Reference: patent publication US20240116985A1 (published 2024)
Starred links: 1 amine or outer side, 2 acyl side, 3 side chain; linkers in the order of their positions; H or OH if unused. Positions of bridges follow the written chain, without caps; N, C: chain ends. Non-standard residues stand in square brackets, D forms with d. Primed or numbered codes have the meaning given here. B5(11) = 2,2-bis(4-pentenyl)glycine = 2-amino-2-(pent-4-en-1-yl)hept-6-enoic acid (stitching residue, bears both staples), C=CCCCC(CCCC=C)(N[*:1])C(=O)[*:2]; RdN(3) = (R)-4-(((allyloxy)carbonyl)(methyl)amino)-2-amino-2-methylbutanoic acid, stapling residue, C=CCOC(=O)N(C)CC[C@@](C)(N[*:1])C(=O)[*:2]; RdN″ = (R)-4-(((allyloxy)carbonyl)(methyl)amino)-2-amino-2-methylbutanoic acid (stapling residue), C=CCOC(=O)N(C)CC[C@@](C)(N[*:1])C(=O)[*:2]; B5(16) = 2-amino-2-(pent-4-en-1-yl)hept-6-enoic acid = 2,2-bis(4-pentenyl)glycine (stitching residue), C=CCCCC(CCCC=C)(N[*:1])C(=O)[*:2]; B5(4) = 2,2-bis(4-pentenyl)glycine = 2-amino-2-(pent-4-en-1-yl)hept-6-enoic acid (stitching residue), C=CCCCC(CCCC=C)(N[*:1])C(=O)[*:2]; RdN = (R)-4-(((allyloxy)carbonyl)(methyl)amino)-2-amino-2-methylbutanoic acid, C=CCOC(=O)N(C)CC[C@@](C)(N[*:1])C(=O)[*:2]; EtGA = (S)-2-amino-3-((carboxymethyl)(ethyl)amino)propanoic acid, CCN(CC(=O)[*:3])C[C@H](N[*:1])C(=O)[*:2]; Trp(7-F) = N[C@@H](Cc1c[nH]c2c(F)cccc12)C(=O)O; S7 = C[C@@](CCCCCC=[*:3])(N[*:1])C(=O)[*:2]; Bta = N[C@@H](Cc1csc2ccccc12)C(=O)O; αAllylPro = C=CC[C@@]1(C(=O)O)CCCN1; NMeH = CN[C@@H](Cc1c[nH]cn1)C(=O)O; S8 = C=CCCCCCC[C@](C)(N)C(=O)O; Aib = CC(C)(N)C(=O)O

T1: full-length beta-Catenin (Uniprot ID P35222) (Homo sapiens (Human), UniProt P35222 2-781)
T1 construct: Also used here for the endogenous beta-catenin of the DLD1 TCF reporter cells; also called bCat; B-Catenin
T1 sequence: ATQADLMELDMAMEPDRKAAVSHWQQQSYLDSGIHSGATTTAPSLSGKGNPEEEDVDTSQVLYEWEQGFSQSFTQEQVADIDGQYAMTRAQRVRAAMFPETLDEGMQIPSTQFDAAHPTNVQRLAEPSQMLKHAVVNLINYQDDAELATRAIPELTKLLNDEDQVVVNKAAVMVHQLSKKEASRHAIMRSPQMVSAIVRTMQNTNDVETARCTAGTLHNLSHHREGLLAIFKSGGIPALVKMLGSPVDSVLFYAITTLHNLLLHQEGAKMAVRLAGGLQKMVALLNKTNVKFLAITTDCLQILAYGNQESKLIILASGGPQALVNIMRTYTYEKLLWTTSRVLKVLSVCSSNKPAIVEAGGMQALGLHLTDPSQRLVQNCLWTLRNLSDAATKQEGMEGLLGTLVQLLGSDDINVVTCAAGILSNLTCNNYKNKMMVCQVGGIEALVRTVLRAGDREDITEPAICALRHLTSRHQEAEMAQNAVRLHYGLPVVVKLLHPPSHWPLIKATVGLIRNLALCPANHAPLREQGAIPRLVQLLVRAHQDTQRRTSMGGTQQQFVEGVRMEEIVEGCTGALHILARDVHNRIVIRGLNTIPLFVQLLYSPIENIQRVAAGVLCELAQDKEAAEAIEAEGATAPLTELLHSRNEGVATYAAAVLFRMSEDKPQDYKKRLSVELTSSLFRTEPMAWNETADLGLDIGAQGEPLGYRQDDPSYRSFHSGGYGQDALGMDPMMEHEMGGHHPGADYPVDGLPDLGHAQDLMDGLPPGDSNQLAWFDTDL

T2: full-length beta-Catenin (Uniprot ID P35222) (Homo sapiens (Human), UniProt P35222 1-781)
T2 construct: The assay protocol says 'full-length beta-Catenin (Uniprot ID P35222)'; also called bCat; B-Catenin
T2 sequence: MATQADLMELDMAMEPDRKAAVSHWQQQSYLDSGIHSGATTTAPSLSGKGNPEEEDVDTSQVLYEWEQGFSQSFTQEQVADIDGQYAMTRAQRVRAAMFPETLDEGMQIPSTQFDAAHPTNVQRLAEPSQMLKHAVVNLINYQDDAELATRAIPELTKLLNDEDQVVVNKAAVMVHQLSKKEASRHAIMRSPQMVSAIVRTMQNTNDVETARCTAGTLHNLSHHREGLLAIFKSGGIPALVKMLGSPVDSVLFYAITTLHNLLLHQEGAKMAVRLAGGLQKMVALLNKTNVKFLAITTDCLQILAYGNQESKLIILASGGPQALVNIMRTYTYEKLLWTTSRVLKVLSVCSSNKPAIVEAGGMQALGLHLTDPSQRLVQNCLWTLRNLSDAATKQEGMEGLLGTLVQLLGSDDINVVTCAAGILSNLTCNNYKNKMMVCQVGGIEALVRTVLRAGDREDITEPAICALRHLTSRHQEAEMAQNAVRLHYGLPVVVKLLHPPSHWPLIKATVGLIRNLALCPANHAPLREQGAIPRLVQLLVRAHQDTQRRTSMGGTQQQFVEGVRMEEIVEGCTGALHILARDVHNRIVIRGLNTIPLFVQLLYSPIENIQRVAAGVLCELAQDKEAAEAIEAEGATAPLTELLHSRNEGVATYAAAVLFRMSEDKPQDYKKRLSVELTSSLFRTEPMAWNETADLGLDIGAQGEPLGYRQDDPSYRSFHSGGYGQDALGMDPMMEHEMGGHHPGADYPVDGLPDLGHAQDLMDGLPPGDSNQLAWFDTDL

B1: I-748 (peptide)
peptide: XDLXDEAAFNXFXT
modifications: not fully specified; as printed: Ac-PL3-Asp-Leu-B5-Asp-Glu-Ala-Ala-Phe-Asn-S8-Phe-BztA-Thr-NH2; N-terminal Ac, C-terminal NH2; stapled by olefin metathesis PL3(1)-B5(4) and B5(4)-S8(11)
notes: Stapled peptide composition
B2: I-749 (peptide)
peptide: XDLXDEAAFNXFXT
modifications: not fully specified; as printed: Ac-PL3-Asp-Leu-B5-Asp-Glu-Ala-Ala-Phe-Asn-S8-Phe-BztA-Thr-NH2; N-terminal Ac, C-terminal NH2; stapled by olefin metathesis PL3(1)-B5(4) and B5(4)-S8(11)
notes: Stapled peptide composition
B3: I-155 (peptide)
peptide: ADIXDEAAFAXFWA
modifications: not fully specified; N-terminal acetyl (Ac); RdN at 4 and S7 at 11 (staple RdN-S7 by olefin metathesis); C-terminal amide (NH2)
notes: also called Ac-Ala-Asp-Ile-RdN-Asp-Glu-Ala-Ala-Phe-Ala-S7-Phe-Trp-Ala-NH2
B4: I-154 (peptide)
peptide: ADIXDEAAFAXFWA
modifications: not fully specified; N-terminal acetyl (Ac); RdN at 4 and S7 at 11 (staple RdN-S7 by olefin metathesis); C-terminal amide (NH2)
notes: as for B3
B5: I-153 (peptide)
peptide: Ac-ADI[RdN(3)]DEAAFQ[S7]FWA-NH2
modifications: staple 4-11
notes: also called Ac-Ala-Asp-Ile-RdN-Asp-Glu-Ala-Ala-Phe-Gln-S7-Phe-Trp-Ala-NH2
B6: I-152 (peptide)
peptide: Ac-ADI[RdN″]DEAAFA[S7]FWH-NH2
modifications: staple 4-11
notes: also called Ac-Ala-Asp-Ile-RdN-Asp-Glu-Ala-Ala-Phe-Ala-S7-Phe-Trp-His-NH2
B7: I-166 (peptide)
peptide: Ac-[αAllylPro]DA[B5(16)]DEAAFV[S8]F[Trp(7-F)]Q-NH2
modifications: staple 1-4, 4-11
notes: also called Ac-PL3-Asp-Ala-B5-Asp-Glu-Ala-Ala-Phe-Val-S8-Phe-7FW-Gln-NH2
B8: I-172 (peptide)
peptide: Ac-[αAllylPro]DA[B5(4)]D[EtGA]AAFV[S8]FWQ-NH2
modifications: staple 1-4, 4-11; not fully specified
notes: also called Ac-PL3-Asp-Ala-B5-Asp-EtGA-Ala-Ala-Phe-Val-S8-Phe-Trp-Gln-NH2
B9: I-144 (peptide)
peptide: Ac-[αAllylPro]DA[B5(4)]DEAAFV[S8]F[Bta]Q-NH2
modifications: staple 1-4, 4-11
notes: also called Ac-PL3-Asp-Ala-B5-Asp-Glu-Ala-Ala-Phe-Val-S8-Phe-BztA-Gln-NH2
B10: I-147 (peptide)
peptide: Ac-[Aib]DI[RdN]DEAAFQ[S7]FW-NH2
modifications: staple 4-11
notes: also called Ac-Aib-Asp-Ile-RdN-Asp-Glu-Ala-Ala-Phe-Gln-S7-Phe-Trp-NH2
B11: I-148 (peptide)
peptide: Ac-ADI[RdN″]DEAAFQ[S7]FW-NH2
modifications: staple 4-11
notes: also called Ac-Ala-Asp-Ile-RdN-Asp-Glu-Ala-Ala-Phe-Gln-S7-Phe-Trp-NH2

Biological target: T1, full-length beta-Catenin (Uniprot ID …)
Experiment: fluorescence polarization competition; full-length beta-catenin, competitor 5FAM-TCF4(10-53) probe
In short: (§1)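 Data fitted to 1:1 binding model with hill slope from duplicate reads taken after 60 minutes at 20° C. in the dark.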

EC50 [nM]	Binder
64	Ac-[αAllylPro]DL[B5(4)]DEAAFN[S8]F[Bta][dN]-NH2 (staple 1-4, 4-11; also: earlier-eluting HPLC peak (staple isomer), Stapled peptide composition) [I-757]
54	B1
115	Ac-[αAllylPro]DL[B5(4)]DEAAFN[S8]F[Bta][dT]-NH2 (staple 1-4, 4-11; also: earlier-eluting HPLC peak (staple isomer), Stapled peptide composition) [I-754]
47	Ac-[αAllylPro]DL[B5(4)]DEAAFN[S8]F[Bta][dN]-NH2 (staple 1-4, 4-11; also: later-eluting HPLC peak (staple isomer), Stapled peptide composition) [I-758]
2390	Ac-[αAllylPro]DL[B5(11)]DEAAFN[S8]F[Bta][NMeH]-NH2 (staple 1-4, 4-11; not fully specified, Stapled peptide composition) [I-747]
40	B2
88	Ac-[αAllylPro]DL[B5(4)]DEAAFN[S8]F[Bta][dT]-NH2 (staple 1-4, 4-11; also: later-eluting HPLC peak (staple isomer), Stapled peptide composition) [I-755]

Biological target: T2, full-length beta-Catenin (Uniprot ID …)
Experiment: as above
In short: as §1

IC50 [nM]	Binder
5000	B3
5000	B4
2140	B5
5000	B6
2160	B7
5000	B8
146	B9
1640	B10
2770	B11
